According to publication PMC6170785, “Synthetic Fragments of Receptor for Advanced Glycation End Products Bind Beta-Amyloid 1–40 and Protect Primary Brain Cells From Beta-Amyloid Toxicity” (Frontiers in Neuroscience, 2018):

Legend:
Aβ 1–40 = target: T1, Aβ 1–40 (Homo sapiens, UniProt P05067); test: Fluorescent titration of RAGE fragments by Aβ 1–40; format: binding; settings: tryptophan fluorescence titration with Aβ 1–40; 25 mM Tris-HCl, 100 mM NaCl, 5 mM EDTA, pH 7.5; peptide 0.5 μM (P1) or 2 μM (P2–P6); excitation 285 nm, emission 355 nm; mean ± SEM of three independent measurements
T1 construct: Lyophilized synthetic Aβ 1–40 was dissolved in mili-Q water; host or cells: chemical synthesis (synthetic peptide)
T1 sequence (P05067 672-711 limits assumed): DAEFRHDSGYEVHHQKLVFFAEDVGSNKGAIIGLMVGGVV
Description: The fluorescence titrations of synthetic peptides were performed using Fluoromax 3 fluorescence spectrophotometer (Horiba Jobin Yvon, Germany). Titrations were conducted in a quartz cuvette with 2 ml of titration buffer (25 mM Tris-HCl, 100 mM NaCl, 5 mM EDTA, pH 7.5). The concentration of peptide (60–76) which has two tryptophan residues was 0.5 μM. Whereas peptides (60–70), (60–62), (60–65), (62–73), and (65–76) have only one Trp residue, their concentration was 2 μM to enhance the signal. Lyophilized synthetic Aβ 1–40 was dissolved in mili-Q water at a concentration of 1 mM. […]
The fluorescence spectrum was measured after each addition of beta-amyloid. […] Emission was detected in the range of […]. The maximum of fluorescence intensity was found at 355 nm. […]
where [S] – concentration of Aβ 1–40 in cuvette; ΔF is the difference of intensity between experiment in absence of Aβ 1–40 and experiment with beta-amyloid at the certain concentration and ΔFmax is the maximal fluorescence change ([Huang et al., 2016]). […]
The dissociation constant Kd was found by multiplication of the calculated slope factor and ΔFmax. For each peptide the dissociation constant was measured three times independently. Dissociation constants were expressed as mean ± SEM. P-values were measured by Mann-Whitney test to estimate the differences between each of obtained dissociation constants.

[1] = tested on: primary cultures of neurons and astrocytes derived from hippocampal and cortical areas of rats' brains; test: Caspase 3 activity assay (NucView 488) after Aβ 1–42 treatment; format: cell-based, rat; settings: pre-incubation 3 h with 10 μM peptide, then 1 h with 5 μM Aβ 1–42, NucView 488, confocal, mean (SEM) of N = 6–28 fields
Description: Mixed cultures of hippocampal and cortical neurons and glial cells were prepared as described previously ([Vaarmann et al., 2010]) with modifications, from Sprague-Dawley rat pups 2–4 days post-partum (UCL breeding colony). […] Hippocampi and cortex were removed into ice-cold PBS (Ca^2+, Mg^2+-free, Invitrogen, Paisley, United Kingdom). The tissue was minced and trypsinised (0.25% for 15 min at 37°C), triturated and plated on Poly-D-lysine-coated coverslips and cultured in Neurobasal A medium (Invitrogen, Paisley, United Kingdom) supplemented with B-27 (Invitrogen, Paisley, United Kingdom) and 2 mM L-glutamine. […]
For the measurement of caspase 3 activation, cells were loaded for 15 min at room temperature with 10 μM NucView 488 caspase 3 substrate (Biotium, United States) in HBSS. […] The 488 nm argon laser was used to excite NucView 488 fluorescence, which was measured using a bandpass filter from 510 and 560 nm. […] The number of cells with activated caspase 3 and the number of all visible cells was quantified manually in each field and the percentage of dead cells was calculated by dividing the number of caspase 3-positive cells by the number of all cells counted in one field. The differences between the groups were evaluated using the two-sample t-test. All data were expressed as mean ± SEM. […]

[2] = target: Beta-amyloid 1-40 Abeta 1-40 (Homo sapiens, UniProt P05067); test: tryptophan fluorescence titration
Beta-amyloid 1-40 Abeta 1-40, sequence (P05067 1-40): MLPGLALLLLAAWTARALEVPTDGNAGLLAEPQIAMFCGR

| Molecule | Kd [2] [µM] | also measured |
| --- | --- | --- |
| SPQGGGPWDSVA [Peptide P5, synthetic fragment (65–76) of human RAGE] |  | Kd (Aβ 1–40): No binding; Percentage of cells with activated caspase 3, Mean [1]: 14.25%; Percentage of cells with activated caspase 3, Mean ([1]; SEM): 14.25 ± 3.22% |
| AWKVLS [RAGE fragment P4 (60-65)] | 2.81 |  |
| AWKVLSPQGGG [RAGE fragment P2 (60-70)] | 4.06 |  |
| KVLSPQGGGPWD [RAGE fragment P6 (62-73)] | 1.53 |  |
| AWKVLSPQGGGPWDSVA [RAGE fragment P1 (60-76)] | 1.39 |  |
| AWK [RAGE fragment P3 (60-62)] | 0.84 |  |
